Data on two molecules can be found in PMC5349888, “Thyroid transcription factor FOXE1 interacts with ETS factor ELK1 to co-regulate TERT”.

Series [1] addresses T1, ELK1-HA (human, UniProt P19419 1-428).
T1 sequence: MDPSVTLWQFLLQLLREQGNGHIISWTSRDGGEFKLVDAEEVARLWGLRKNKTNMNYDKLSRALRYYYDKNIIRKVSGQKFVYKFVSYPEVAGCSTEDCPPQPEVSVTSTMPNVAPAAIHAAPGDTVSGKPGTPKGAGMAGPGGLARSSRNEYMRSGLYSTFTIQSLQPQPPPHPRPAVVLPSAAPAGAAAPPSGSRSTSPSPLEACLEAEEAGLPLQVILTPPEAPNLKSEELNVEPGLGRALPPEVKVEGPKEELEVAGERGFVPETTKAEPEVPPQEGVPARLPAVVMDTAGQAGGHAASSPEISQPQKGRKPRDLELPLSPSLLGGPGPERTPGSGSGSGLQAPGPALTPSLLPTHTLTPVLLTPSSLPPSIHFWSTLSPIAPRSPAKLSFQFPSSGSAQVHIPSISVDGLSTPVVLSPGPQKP
Briefly: EMSA; ELK1 alone; EMSA: 1 ug protein, 150 mM KCl, 50 ng/uL poly(dI-dC), 10% glycerol, 10 mM Tris pH 7.5, room temperature 30 min; 6% polyacrylamide gel. Conditions: protein: recombinant; tags: HA (pCMV-HA-N); label: 5' biotin; blunt. In general terms: In EMSA bound probe runs differently from free probe, usually more slowly.

Series [2] has as its target T2, FOXE1-Flag;ELK1-HA (human;human, UniProt O00358;P19419 1-373;1-428, |).
T2 sequence 1: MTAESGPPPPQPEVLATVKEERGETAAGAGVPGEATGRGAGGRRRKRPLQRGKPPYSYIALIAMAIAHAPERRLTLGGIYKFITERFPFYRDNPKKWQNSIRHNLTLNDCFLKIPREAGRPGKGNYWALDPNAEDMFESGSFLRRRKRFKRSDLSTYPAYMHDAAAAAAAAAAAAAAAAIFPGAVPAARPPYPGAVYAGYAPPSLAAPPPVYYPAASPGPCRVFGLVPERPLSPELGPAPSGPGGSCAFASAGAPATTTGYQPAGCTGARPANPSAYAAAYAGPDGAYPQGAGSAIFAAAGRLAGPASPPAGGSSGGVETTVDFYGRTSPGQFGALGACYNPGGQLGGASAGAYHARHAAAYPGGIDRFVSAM
T2 sequence 2: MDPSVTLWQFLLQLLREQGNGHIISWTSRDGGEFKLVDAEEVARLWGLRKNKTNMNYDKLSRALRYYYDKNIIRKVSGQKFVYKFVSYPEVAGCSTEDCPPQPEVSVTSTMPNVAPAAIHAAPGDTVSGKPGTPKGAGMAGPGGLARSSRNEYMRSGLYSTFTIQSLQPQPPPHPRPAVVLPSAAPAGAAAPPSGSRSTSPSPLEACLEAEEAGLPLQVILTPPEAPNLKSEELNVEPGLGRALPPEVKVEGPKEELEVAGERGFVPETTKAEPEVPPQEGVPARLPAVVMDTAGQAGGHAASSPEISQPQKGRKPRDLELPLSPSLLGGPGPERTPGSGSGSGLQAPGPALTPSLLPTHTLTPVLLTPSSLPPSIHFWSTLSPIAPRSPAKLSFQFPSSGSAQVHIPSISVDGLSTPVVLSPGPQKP
Briefly: EMSA; FOXE1 shifts only with ELK1 present; EMSA: 1 ug protein, 150 mM KCl, 50 ng/uL poly(dI-dC), 10% glycerol, 10 mM Tris pH 7.5, room temperature 30 min; 6% polyacrylamide gel. The following applies: protein: recombinant;recombinant; tags: 3xFlag (p3XFlag-CMV-7.1);HA (pCMV-HA-N); copies: 1;1; label: 5' biotin; blunt.

Series [3] deals with T3, FOXE1-Flag (human, UniProt O00358 1-373).
T3 sequence: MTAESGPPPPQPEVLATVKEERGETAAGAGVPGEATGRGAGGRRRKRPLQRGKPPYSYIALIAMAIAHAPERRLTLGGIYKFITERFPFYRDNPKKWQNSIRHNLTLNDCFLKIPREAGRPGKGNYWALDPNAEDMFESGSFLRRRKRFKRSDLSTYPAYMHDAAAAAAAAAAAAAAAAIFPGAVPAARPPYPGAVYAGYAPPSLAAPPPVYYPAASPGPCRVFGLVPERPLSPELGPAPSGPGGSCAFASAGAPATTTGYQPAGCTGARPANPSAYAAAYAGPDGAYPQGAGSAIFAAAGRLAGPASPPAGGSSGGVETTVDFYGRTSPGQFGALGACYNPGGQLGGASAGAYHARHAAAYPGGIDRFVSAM
Briefly: EMSA; positive control; EMSA: 1 ug protein, 150 mM KCl, 50 ng/uL poly(dI-dC), 10% glycerol, 10 mM Tris pH 7.5, room temperature 30 min; 6% polyacrylamide gel. Conditions: protein: recombinant; tags: 3xFlag (p3XFlag-CMV-7.1); label: 5' biotin; blunt.

B1: TERT promoter probe (dsDNA)
DNA 1: CCCCGCCCCGTCCCGACCCCTCCCGGGTCCCCGGCCCAGCCCCCTCCGGGCCCTCCCAGCCCCTCCCCTTCCTTTCCGCGGCCCC
DNA 2: GGGGCCGCGGAAAGGAAGGGGAGGGGCTGGGAGGGCCCGGAGGGGGCTGGGCCGGGGACCCGGGAGGGGTCGGGACGGGGCGGGG
Consider B1, for which the binding result in series [1] and in series [2] was “binds” throughout.

B2: TG promoter K region probe (dsDNA)
DNA 1: GAGGGAGTTCCTGTGACTAGCAGAGAAAACAAAGTGAGCCAC
DNA 2: GTGGCTCACTTTGTTTTCTCTGCTAGTCACAGGAACTCCCTC
For B2, in series [3], the binding result is listed as “binds”.
